B1: Speckle-type POZ protein (Homo sapiens), O43791 (parent)
chain: MSRVPSPPPPAEMSSGPVAESWCYTQIKVVKFSYMWTINNFSFCREEMGEVIKSSTFSSGANDKLKWCLRVNPKGLDEESKDYLSLYLLLVSCPKSEVRAKFKFSILNAKGEETKAMESQRAYRFVQGKDWGFKKFIRRDFLLDEANGLLPDDKLTLFCEVSVVQDSVNISGQNTMNMVKVPECRLADELGGLWENSRFTDCCLCVAGQEFQAHKAILAARSPVFSAMFEHEMEESKKNRVEINDVEPEVFKEMMCFIYTGKAPNLDKMADDLLAAADKYALERLKVMCEDALCSNLSVENAAEILILADLHSADQLKTQAVDFINYHASDVLETSGWKSMVVSHPHLVAEAYRSLASAQCPFLGPPRKRLKQS
partner: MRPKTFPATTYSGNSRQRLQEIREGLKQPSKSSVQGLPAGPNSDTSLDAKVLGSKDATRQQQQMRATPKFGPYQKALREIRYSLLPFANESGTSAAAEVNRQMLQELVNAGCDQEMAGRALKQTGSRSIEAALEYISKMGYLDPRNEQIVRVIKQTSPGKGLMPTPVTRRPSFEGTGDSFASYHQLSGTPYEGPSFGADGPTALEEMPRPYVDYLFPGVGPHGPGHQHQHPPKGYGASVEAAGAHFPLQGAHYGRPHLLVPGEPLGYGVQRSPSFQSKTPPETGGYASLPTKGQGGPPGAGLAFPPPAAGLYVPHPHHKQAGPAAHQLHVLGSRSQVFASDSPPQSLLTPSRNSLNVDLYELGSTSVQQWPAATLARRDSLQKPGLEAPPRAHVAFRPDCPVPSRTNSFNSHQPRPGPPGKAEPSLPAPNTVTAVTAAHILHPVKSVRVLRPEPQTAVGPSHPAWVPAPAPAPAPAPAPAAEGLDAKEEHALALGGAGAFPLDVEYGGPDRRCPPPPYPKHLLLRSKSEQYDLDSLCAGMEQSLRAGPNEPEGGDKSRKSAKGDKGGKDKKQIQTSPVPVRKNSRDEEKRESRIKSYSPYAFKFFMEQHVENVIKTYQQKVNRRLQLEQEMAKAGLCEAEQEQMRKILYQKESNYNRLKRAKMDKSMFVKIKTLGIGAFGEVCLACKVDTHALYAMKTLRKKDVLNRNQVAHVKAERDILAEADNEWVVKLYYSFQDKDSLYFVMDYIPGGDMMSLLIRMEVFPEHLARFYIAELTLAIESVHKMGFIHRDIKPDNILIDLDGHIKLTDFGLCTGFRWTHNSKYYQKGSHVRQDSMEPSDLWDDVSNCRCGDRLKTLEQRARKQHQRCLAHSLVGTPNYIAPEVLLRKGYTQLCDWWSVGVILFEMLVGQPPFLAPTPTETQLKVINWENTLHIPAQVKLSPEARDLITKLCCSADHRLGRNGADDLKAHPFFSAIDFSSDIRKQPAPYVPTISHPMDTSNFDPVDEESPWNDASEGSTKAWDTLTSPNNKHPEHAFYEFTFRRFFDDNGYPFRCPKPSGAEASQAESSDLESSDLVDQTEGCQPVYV
B2: Speckle-type POZ protein (Homo sapiens), O43791 (parent)
chain: B1 chain
partner: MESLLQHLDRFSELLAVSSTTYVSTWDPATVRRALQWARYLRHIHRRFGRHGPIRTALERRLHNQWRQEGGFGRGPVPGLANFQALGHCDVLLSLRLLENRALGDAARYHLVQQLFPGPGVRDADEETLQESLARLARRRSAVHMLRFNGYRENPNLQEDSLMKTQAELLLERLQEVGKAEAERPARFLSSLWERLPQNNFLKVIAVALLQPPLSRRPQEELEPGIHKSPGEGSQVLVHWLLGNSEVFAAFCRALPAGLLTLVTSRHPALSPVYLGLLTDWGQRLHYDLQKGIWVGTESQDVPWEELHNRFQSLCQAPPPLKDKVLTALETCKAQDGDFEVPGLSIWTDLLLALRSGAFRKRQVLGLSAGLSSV
B3: Speckle-type POZ protein (Homo sapiens), O43791 (parent)
chain: B1 chain
partner: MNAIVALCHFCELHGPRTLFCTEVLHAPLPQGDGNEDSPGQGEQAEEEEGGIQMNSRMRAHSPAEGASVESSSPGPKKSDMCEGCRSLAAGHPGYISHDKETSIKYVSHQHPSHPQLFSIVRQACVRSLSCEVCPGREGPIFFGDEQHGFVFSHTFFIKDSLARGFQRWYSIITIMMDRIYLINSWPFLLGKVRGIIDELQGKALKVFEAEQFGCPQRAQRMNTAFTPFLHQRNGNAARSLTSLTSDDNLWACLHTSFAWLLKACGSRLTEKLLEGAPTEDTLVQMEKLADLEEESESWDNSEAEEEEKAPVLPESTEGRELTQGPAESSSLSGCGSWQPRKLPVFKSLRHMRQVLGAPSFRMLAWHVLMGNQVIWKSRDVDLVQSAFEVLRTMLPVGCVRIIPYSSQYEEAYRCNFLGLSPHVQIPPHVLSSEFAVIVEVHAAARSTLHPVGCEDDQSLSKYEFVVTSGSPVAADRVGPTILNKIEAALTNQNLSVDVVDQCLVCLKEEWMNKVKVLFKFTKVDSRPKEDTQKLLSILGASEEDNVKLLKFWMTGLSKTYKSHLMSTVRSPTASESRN
B4: Speckle-type POZ protein (Homo sapiens), O43791 (parent)
chain: B1 chain
partner: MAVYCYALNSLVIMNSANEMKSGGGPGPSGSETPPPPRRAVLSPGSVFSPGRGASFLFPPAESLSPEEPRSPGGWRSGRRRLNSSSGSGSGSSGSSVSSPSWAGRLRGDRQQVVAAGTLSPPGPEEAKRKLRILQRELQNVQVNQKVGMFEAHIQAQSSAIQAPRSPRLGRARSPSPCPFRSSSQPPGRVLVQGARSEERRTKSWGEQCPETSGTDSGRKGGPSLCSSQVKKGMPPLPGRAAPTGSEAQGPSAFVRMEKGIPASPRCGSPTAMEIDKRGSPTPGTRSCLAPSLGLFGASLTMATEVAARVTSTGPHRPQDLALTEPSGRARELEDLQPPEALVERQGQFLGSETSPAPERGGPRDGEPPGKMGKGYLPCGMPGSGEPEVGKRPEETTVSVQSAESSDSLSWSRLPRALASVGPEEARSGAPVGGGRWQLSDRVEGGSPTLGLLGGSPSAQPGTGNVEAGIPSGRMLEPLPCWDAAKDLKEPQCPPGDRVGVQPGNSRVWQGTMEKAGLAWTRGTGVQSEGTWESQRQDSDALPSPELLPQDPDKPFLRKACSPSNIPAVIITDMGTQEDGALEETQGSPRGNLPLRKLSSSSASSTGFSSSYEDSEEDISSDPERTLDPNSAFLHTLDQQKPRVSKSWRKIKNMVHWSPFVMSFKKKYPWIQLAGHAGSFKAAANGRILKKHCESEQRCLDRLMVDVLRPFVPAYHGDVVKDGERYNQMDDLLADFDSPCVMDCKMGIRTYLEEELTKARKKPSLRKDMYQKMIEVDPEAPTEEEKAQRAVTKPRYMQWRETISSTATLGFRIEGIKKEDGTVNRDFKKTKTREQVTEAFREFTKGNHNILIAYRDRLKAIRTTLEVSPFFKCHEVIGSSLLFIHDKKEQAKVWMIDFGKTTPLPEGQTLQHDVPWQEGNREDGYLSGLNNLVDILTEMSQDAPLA

Variants of: B1
Details: with lats2_human LATS2, Q9NRM7

| Variant | effect of a mutation on the interaction |
| --- | --- |
| Y87C | with no effect |

Variants of: B2
Details: with fancf_human FANCF

| Variant | effect of a mutation on the interaction |
| --- | --- |
| F133L | with no effect |

Variants of: B2
Details: with fancf_human FANCF
Remark: another data set of the same source

| Variant | effect of a mutation on the interaction |
| --- | --- |
| F133V | with no effect |

Variants of: B2
Details: with fancf_human FANCF
Remark: another data set of the same source

| Variant | effect of a mutation on the interaction |
| --- | --- |
| Y87C | causing an interaction |

Variants of: B2
Details: with fancf_human FANCF
Remark: another data set of the same source

| Variant | effect of a mutation on the interaction |
| --- | --- |
| F102C | with no effect |

Variants of: B3
Details: with flcn_human FLCN

| Variant | effect of a mutation on the interaction |
| --- | --- |
| F133L | with no effect |

Variants of: B3
Details: with flcn_human FLCN
Remark: another data set of the same source

| Variant | effect of a mutation on the interaction |
| --- | --- |
| F133V | with no effect |

Variants of: B3
Details: with flcn_human FLCN
Remark: another data set of the same source

| Variant | effect of a mutation on the interaction |
| --- | --- |
| F102C | with no effect |

Variants of: B3
Details: with flcn_human FLCN
Remark: another data set of the same source

| Variant | effect of a mutation on the interaction |
| --- | --- |
| Y87C | with no effect |

Variants of: B4
Details: with ip3kb_human ITPKB

| Variant | effect of a mutation on the interaction |
| --- | --- |
| Y87C | with no effect |

Variants of: B4
Details: with ip3kb_human ITPKB
Remark: another data set of the same source

| Variant | effect of a mutation on the interaction |
| --- | --- |
| F102C | with no effect |

Variants of: B4
Details: with ip3kb_human ITPKB
Remark: another data set of the same source

| Variant | effect of a mutation on the interaction |
| --- | --- |
| F133V | with no effect |

Reference: IntAct's records for PubMed 35512704
